Source: the RNAGym collection of RNA variant scans (doi:10.7554/elife.80360)

B1: Hairpin Ribozyme (parent)
chain: GUCCUCUUUCACGUGCGCGUGAAAGAGAGAAGUGAACCAGAGAAACACACGUUGUGGUAUAUUACCUGGUA

Variants of: B1
Assay: self-cleavage, relative activity (ratio to wild type); higher = more cleavage; co-transcriptional

Variant | self-cleavage
U33A G42C | 0.14
G34C G57U | 0.96
G34C G57A | 0.427
U33G C66U | 0.21
A35G A39C | 0.257
A35U A71C | 1.57
U33G A35G | 0.126
G34C G51C | 1.44
A35C U52C | 1.05
A35C U52G | 0.728
A35G G40C | 0.175
U33C A39U | 0.0555
A35C C48U | 0.101
G34C C48A | 0.411
G34C C48U | 0.572
A35C C66G | 0.159
A35C C66A | 0.293
A35G C65G | 0.221
A35G C65U | 0.227
U33A G57C | 0.157
U33A G57A | 0.137
U33C A71G | 0.241
U33C A71C | 0.63
G34U A61U | 1.13

Variant | self-cleavage
U33A G69C | 0.124
U33A G69A | 0.0983
U33A G69U | 0.134
A35U C65G | 0.204
A35U C65U | 0.223
A35C G40C | 0.184
A35G A45U | 0.25
A35G C46U | 0.145
A35G C46G | 0.0878
G34A A64G | 0.625
G34C U53C | 1.36
G34C U53A | 0.963
G34C U53G | 1.03
G34U U53C | 0.405
G34U U53A | 1.46
G34U U53G | 1.58
G34U G40U | 0.7
G34U C50G | 1.12
G34U C50U | 0.913
A35G G51U | 0.949
A35G G51A | 0.964
A35U U53C | 1.04
G34U G57U | 1.28
G34U G56A | 0.788

Variant | self-cleavage
A35U C37A | 0.406
A35U C37U | 0.457
A35U A36U | 0.524
G34A G57A | 0.207
U33A C48A | 0.0899
G34C A45C | 0.0204
A35C A45G | 0.083
A35C A45U | 0.0921
A35C A39G | 0.591
A35C A39C | 0.226
G34U C65A | 1.57
G34U C65U | 1.3
G34A G42U | 0.406
U33G G51A | 0.118
U33C G69C | 0.114
U33C G69A | 0.0835
G34U G51C | 1.49
A35C U53C | 0.835
A35C U53A | 0.995
A35U G56C | 0.124
G34A A43U | 0.18
A35U G68U | 0.177
A35U G68C | 0.206
G34C A44U | 0.119

Variant | self-cleavage
G34C A44G | 0.264
G34C G68A | 0.723
U33G A71G | 0.184
A35U A43C | 0.0178
G34A U67A | 0.194
G34C C50A | 1.1
G34A U70G | 0.979
G34A G54A | 0.745
G34A G54C | 0.302
G34C G69U | 0.729
U33C A45U | 0.15
U33C A45C | 0.124
G34U C38A | 0.658
A35C A71C | 1.27
G34A A71U | 1.02
U33G G56A | 0.221
G34A A39C | 0.456
G34A A39G | 0.768
G34A A39U | 0.304
U33A G54U | 0.186
U33A G54A | 0.213
A35G A64U | 0.129
A35G A49U | 0.174
G34C U62A | 0.471

Variant | self-cleavage
G34C U62G | 0.175
A35G G42C | 0.231
A35G G42A | 0.174
G34C C46U | 0.109
G34A C46A | 0.198
G34U C66A | 1.02
G34U C66U | 1.31
G34U C66G | 0.548
G34U A44G | 0.348
G34U A44U | 0.205
A35G C48U | 0.132
G34C G56U | 0.331
G34C G56C | 0.37
G34C G56A | 0.737
U33C G57A | 0.242
G34A U63C | 0.0965
G34A A35C | 1.43
G34A A35G | 1.1
A35C U58G | 0.954
A35C U58A | 0.841
U33G A49C | 0.114
U33G A49G | 0.135
G34U A64U | 0.883
A35U G40U | 0.134

Variant | self-cleavage
A35C U63A | 0.13
U33A G56C | 0.11
U33G A47C | 0.0542
A35C A44C | 0.0528
A35C A44U | 0.216
G34U A49U | 1
G34U A49G | 1.49
G34U A49C | 0.433
A35G G54A | 0.477
G34C A71G | 1.66
A35C C38A | 0.201
A35C U55C | 0.0658
A35C G56C | 0.196
G34A U52G | 1.09
G34U U62A | 0.981
A35G A59C | 0.104
A35C A47C | 0.564
G34C A35U | 1.61
G34U G54C | 1.15
G34U G54U | 1.26
U33G G42U | 0.153
U33C A61G | 0.0977
U33G G34U | 0.0449
U33C G56U | 0.26

Variant | self-cleavage
U33A G68U | 0.162
U33A U70C | 0.119
U33A U70G | 0.253
A35G A36C | 0.495
A35G A36U | 0.695
U33A U63C | 0.0601
A35U G51U | 0.794
A35U G51C | 0.484
A35U G51A | 0.965
A35C C46G | 0.0823
G34C U52A | 1.66
A35C U70A | 0.805
A35C U70G | 0.676
A35C A36U | 0.606
A35C A36G | 0.683
A35G G68U | 0.208
G34C C65A | 1.45
U33C C65G | 0.138
U33C C65A | 0.159
G34C A47C | 1.38
U33G U58G | 0.155
G34A C48A | 0.122
G34A C48G | 0.17
